We go through one substance from publication PMC9457993.

Several values for one entry are separate records, joined by “and”; a condition that tells them apart may be missing. Equal values may be shown once.

Broadly, the stoichiometry N is a count of units in the complex or per binding partner.

The target in assay [1] is Liraglutide. Briefly: AF4-MALS (asymmetrical flow field-flow fractionation with UV, fluorescence, dRI and MALS detection); thermally stressed, aggregated API (APIaggr), 3 mg/mL in formulation, 60 uL injected; formulation buffer as mobile phase.
The target in assay [2] is Liraglutide. The assay can be described thus: AF4-MALS (asymmetrical flow field-flow fractionation with UV, fluorescence, dRI and MALS detection); Liraglutide 6 mg/mL (API resuspended in water or formulation, FDF, Victoza, Saxenda), 30 uL injected; formulation buffer (disodium phosphate dihydrate, propylene glycol, phenol, water) as mobile phase; PES membrane 1 kDa cutoff; molar mass by MALS with dRI; n = 3.

For assay [3], the target named is Liraglutide. Briefly: SEC-MALS; HPLC-UV-dRI-MALS, Shodex Protein KW-802.5; mobile phase 1 g/L L-Arginine: Acetonitrile: acetic acid, 35:50:15 (results say 30% acetonitrile), isocratic 0.5 mL/min; Liraglutide FDF Lot #33387-18 and Saxenda Lot #JP54138, 6 mg/mL. In general terms: Size exclusion chromatography separates by hydrodynamic size, large species first.
The target of assay [4] is Liraglutide. The assay can be described thus: AF4-MALS (asymmetrical flow field-flow fractionation with UV, fluorescence, dRI and MALS detection); thermally stressed, aggregated API (APIaggr), 3 mg/mL in formulation, 60 uL injected; formulation buffer as mobile phase. This is another data set of the same source.

In the case of Liraglutide (peptide), the stoichiometry N was over 20 units with Liraglutide [1]; 5.2 units with Liraglutide [2]; 2 and 4 with Liraglutide [3]; 20 units in the assay with Liraglutide [4]. Besides, the relative abundance of monomer with Liraglutide [3] was over 99.5%.
